The results in this text go back to patent US20130130288A1 (published 2013).

What is called EC50 is the midpoint of the concentration-response curve. A lower EC50 goes with greater potency. Usually Kd stands for a measure of binding affinity in units of concentration. High values mean lower affinity, low ones higher affinity.

The target of experiment [1] is T1, Aβ1-40 monomer.
T1 construct: also called Aβ40 monomer; monomer Aβ
In words: ELISA on coated antigen, chemiluminescence; antibody stored 1 month at 4°. On the technique in general: In an ELISA, binding on a coated surface is turned into a signal by an enzyme label.

For experiment [2], the target named is T2, amyloid β-derived diffusible ligands (ADDLs), oligomers of Aβ1-42.
T2 construct: number of copies not defined; also called Aβ oligomers; Aβ oligomer
The experiment is described as follows: competitive ELISA, ratio of the two competition EC50 values.

Experiment [3] deals with T2, amyloid β-derived diffusible ligands …. In words: BIACORE (SPR); affinity for Aβ1-40 over affinity for ADDLs. On the technique in general: In SPR one partner is held on a chip, and binding of the other changes the refractive index at the surface.
For experiment [4] the target is unchanged. In words: sandwich ELISA, 19.3 capture and 82E1 detection, luminescence (ENVISION).
The target of experiment [5] is T1, Aβ1-40 monomer. The experiment is described as follows: one-sided ELISA, plate coated with 100 pmol/well Aβ1-40, chemiluminescence.
Experiment [6] has as its target T1, Aβ1-40 monomer. The experiment is described as follows: KINEXA, equilibrium constant in solution.
For experiment [7], the target named is T2, amyloid β-derived diffusible ligands …. The experiment is described as follows: KINEXA, equilibrium constant in solution.
Experiment [8] deals with T1, Aβ1-40 monomer. The experiment is described as follows: ELISA on coated antigen, chemiluminescence; antibody stored 1 month at 25°.
Experiment [9] has as its target T2, amyloid β-derived diffusible ligands …. The experiment is described as follows: KINEXA; constant for Aβ1-40 over constant for ADDLs.
The target is the same in experiment [10]. In words: ERENNA sandwich immunoassay, 19.3 capture, labelled 82E1 detection.
The target of experiment [11] is T1, Aβ1-40 monomer. The experiment is described as follows: ELISA on coated antigen, chemiluminescence; antibody at 0 timepoint.
Experiment [12] deals with T1, Aβ1-40 monomer. The experiment is described as follows: BIACORE (SPR).
Experiment [13] has as its target T2, amyloid β-derived diffusible ligands …. The experiment is described as follows: BIACORE (SPR).
Experiment [14] has the same target. In words: three-pronged Aβ ELISA (M90/1 polyclonal capture); ratio of binding to ADDLs over monomeric Aβ.
The target is the same in experiment [15]. The experiment is described as follows: … bead-based immunoassay; signal at 0.2 pM ADDLs greater than at 1000 pM Aβ1-40.
For experiment [16], the target named is T1, Aβ1-40 monomer. In words: ELISA on coated antigen, chemiluminescence; antibody stored 1 month at 40°.
Experiment [17] concerns the target T2, amyloid β-derived diffusible ligands …. The experiment is described as follows: competitive ELISA.
For experiment [18] the target is unchanged. The experiment is described as follows: one-sided ELISA, plate coated with 50 pmol/well Aβ oligomers, chemiluminescence.
Experiment [19] has the same target. The experiment is described as follows: three-pronged Aβ ELISA (M90/1 polyclonal capture); ratio of binding to ADDLs over fibrillar Aβ.
Experiment [20] shares this target. In words: ELISA, IgG2 antibodies.
The target is the same in experiment [21]. The experiment is described as follows: one-sided ELISA on coated Aβ oligomers or Aβ1-40.

B1: anti-ADDL antibody 19.3 (antibody, V domains shown)
VH: EVQLVESGGGLVQPGGSLRLSCAASGFTFSSFGMHWVRQAPGKGLEWVAYISRGSSTIYYADTVKGRFTISRDNAKNSLYLQMNSLRAEDTAVYYCARGITTALDYWGQGTLVTVSS
VL: DVVMTQSPLSLPVTPGEPASISCRSSQSIVHSNGNTYLEWYLQKPGQSPQLLIYKASNRFSGVPDRFSGSGSGTDFTLKISRVEAEDVGVYYCFQGSRLGPSFGQGTKLEIKR
Turning to B1, the 50% effective concentration (EC50) in the experiment with Aβ1-40 monomer [1] was 16.3 nM; with Aβ1-40 monomer [5], around 4.3 nM; with Aβ1-40 monomer [8], 22.1 nM; with Aβ1-40 monomer [11], 10.1 nM; with Aβ1-40 monomer [16], 88.8 nM; in [18], around 1.6 nM. Moreover, in experiment [20], the EC50 was 0.8 nM. Further, the “affinity for Aβ1-42 oligomers compared to Aβ1-40 monomers” value in [2] was around 630 ratio. The “Ratio (Aβ monomer/ADDL)” value in [3] was around 31 ratio; in experiment [9], around 6.2 ratio. Also, the “fold selectivity for Aβ oligomer signal as compared to Aβ40 monomers” value in experiment [4] was around 1000 fold. Besides, the Kd is 16.7 nM with Aβ1-40 monomer [6], 2.7 nM in experiment [7], 150 nM in the experiment with Aβ1-40 monomer [12] and 4.8 nM in [13]. Also, the “fold selectivity of the assay for Aβ oligomers over Aβ 40 monomer” value in experiment [10] is 5000 fold. Further, the “ADDL:Monomer” value in experiment [14] turned out to be 2.5 ratio. Also, in [15], the “ADDL versus monomeric Aβ selectivity” value is around 5000 fold. The “fold higher concentration of Aβ1-40 needed to displace 50% of 19.3 from Aβ oligomers than of Aβ oligomers to displace 19.3 from Aβ1-40” value in experiment [17] is around 600 fold. For the same molecule, the “ADDL:Fibrillar” value in experiment [19] was determined as 2 ratio. In addition, in [21], the “fold greater potency for Aβ oligomers as compared to Aβ40 monomer” value was around 3.7 fold.

B2: anti-ADDL antibody 11.4 (antibody, V domains shown)
VH: EVQLVESGGGLVQPGGSLRLSCAASGFTFSSFGMHWVRQAPGKGLEWVAYISRGSSTIYYADTVKGRFTISRDNAKNSLYLQMNSLRAEDTAVYYCARGITTALDYWGQGTLVTVSS
VL: DVVMTQSPLSLPVTPGEPASISCRSSQSIVHSNGNTYLEWYLQKPGQSPQLLIYKASNRFSGVPDRFSGSGSGTDFTLKISRVEAEDVGVYYCFQGSRVPVRFGQGTKLEIKR
On to B2, for which the “ADDL:Monomer” value in experiment [14] stood at 2.4 ratio. Moreover, the “ADDL:Fibrillar” value in [19] was 2.4 ratio.

B3: anti-ADDL antibody 14.2 (antibody, V domains shown)
VH: EVQLVESGGGLVQPGGSLRLSCAASGFTFSSFGMHWVRQAPGKGLEWVAYISRGSSTIYYADTVKGRFTISRDNAKNSLYLQMNSLRAEDTAVYYCARGITTALDYWGQGTLVTVSS
VL: DVVMTQSPLSLPVTPGEPASISCRSSQSIVHSNGNTYLEWYLQKPGQSPQLLIYKASNRFSGVPDRFSGSGSGTDFTLKISRVEAEDVGVYYCFQGSRVPPGFGQGTKLEIKR
Take B3: the “ADDL:Monomer” value in [14] is 4.2 ratio.

B4: 19.3 N33T (antibody, V domains shown)
VH: EVQLVESGGGLVQPGGSLRLSCAASGFTFSSFGMHWVRQAPGKGLEWVAYISRGSSTIYYADTVKGRFTISRDNAKNSLYLQMNSLRAEDTAVYYCARGITTALDYWGQGTLVTVSS
VL: DVVMTQSPLSLPVTPGEPASISCRSSQSIVHSTGNTYLEWYLQKPGQSPQLLIYKASNRFSGVPDRFSGSGSGTDFTLKISRVEAEDVGVYYCFQGSRLGPSFGQGTKLEIL
For B4, the results for the concentration for a half-maximal effect (EC50) with Aβ1-40 monomer [1], with Aβ1-40 monomer [11] and in the experiment with Aβ1-40 monomer [16] were 307 nM, 332 nM and 96.3 nM, respectively.

B5: anti-ADDL antibody 13.1 (antibody, V domains shown)
VH: EVQLVESGGGLVQPGGSLRLSCAASGFTFSSFGMHWVRQAPGKGLEWVAYISRGSSTIYYADTVKGRFTISRDNAKNSLYLQMNSLRAEDTAVYYCARGITTALDYWGQGTLVTVSS
VL: DVVMTQSPLSLPVTPGEPASISCRSSQSIVHSNGNTYLEWYLQKPGQSPQLLIYKASNRFSGVPDRFSGSGSGTDFTLKISRVEAEDVGVYYCFQGSKAHPSFGQGTKLEIKR
Take B5: the “ADDL:Monomer” value in experiment [14] turned out to be 2.4 ratio. Besides, the “ADDL:Fibrillar” value in experiment [19] is 2 ratio.

B6: anti-ADDL antibody 17.1 (antibody, V domains shown)
VH: EVQLVESGGGLVQPGGSLRLSCAASGFTFSSFGMHWVRQAPGKGLEWVAYISRGSSTIYYADTVKGRFTISRDNAKNSLYLQMNSLRAEDTAVYYCARGITTALDYWGQGTLVTVSS
VL: DVVMTQSPLSLPVTPGEPASISCRSSQSIVHSNGNTYLEWYLQKPGQSPQLLIYKASNRFSGVPDRFSGSGSGTDFTLKISRVEAEDVGVYYCFQGSRVPASFGQGTKLEIKR
Turning to B6, in experiment [14], the “ADDL:Monomer” value came out at 3.2 ratio. For the same molecule, the “ADDL:Fibrillar” value in experiment [19] came out at 2.1 ratio.

B7: 19.3 N33S (antibody, V domains shown)
VH: EVQLVESGGGLVQPGGSLRLSCAASGFTFSSFGMHWVRQAPGKGLEWVAYISRGSSTIYYADTVKGRFTISRDNAKNSLYLQMNSLRAEDTAVYYCARGITTALDYWGQGTLVTVSS
VL: DVVMTQSPLSLPVTPGEPASISCRSSQSIVHSSGNTYLEWYLQKPGQSPQLLIYKASNRFSGVPDRFSGSGSGTDFTLKISRVEAEDVGVYYCFQGSRLGPSFGQGTKLEIL
Take B7: the 50% effective concentration (EC50) with Aβ1-40 monomer [1] came to 59.1 nM; in the experiment with Aβ1-40 monomer [8], 24.3 nM; with Aβ1-40 monomer [11], 55.1 nM; in the experiment with Aβ1-40 monomer [16], 29.9 nM.
